Source: paper PMC13483459

Target: retromer–SNX3 complex (VPS26A, VPS35-VPS29 fusion, SNX3) (human) (UniProt Q96QK1)

| Binder | mean tube length per liposome (liposome tubulation with retromer and SNX3) [nm] | proportion of liposomes tubulated (cryo-EM; 2.5 uM retromer, 8.75 uM SNX3, 25 uM peptide, 600 uM liposomes, overnight at 4°C; n = 3) [%] | proportion of liposomes tubulated (cryo-EM; liposomes with retromer, SNX3 and the peptide lacking the motif) [%] |
| --- | --- | --- | --- |
| AQPELYLLNTMDADSLVSR [DMT1-II cargo peptide (residues 550-568)] | 568 | 4.15 |  |
| KRQKGKPKRKSK [AAVR cytosolic tail peptide lacking the predicted sorting signal (residues 956-967)] |  |  | 0 |
| KRQKGKPKRKSKYKILDAT [AAVR cytosolic tail peptide (residues 956-974)] | 503 | 3.54 |  |
